This is an account of results in patent US20250241939A1, “NUCLEIC ACID-BASED DELIVERY SYSTEMS AND USES THEREOF” (Kodikaz Therapeutic Solutions, Inc., priority 2022, published 2025).

Data set [1] deals with ctDNA chromatid integration in MM1s, MIA and HCT116 cell lines. The data set is described as follows: Effect of reverse transcriptase or integrase inhibitors on ctDNA chromatid integration. It is filed as cell-based, human. To be noted: HCT116 treated prior to adding ctDNA, compared to no treatment control. The method, then:
To evaluate functionally the role of retrotransposons in horizontal gene transfer of ctDNA, experiments were conducted to test the impact of inhibiting reverse transcriptases or integrases on ctDNA integration. Multiple myeloma (MM1s), pancreatic cancer (MIA), and colon cancer (HCT116) cell lines were treated with the reverse-transcriptase inhibitors zidovudine or didanosine, and with the integrase inhibitor raltegravir prior to adding the ctDNA to culture media.

For data set [2], the system named is MM1s (multiple myeloma) cell genome. Kind of data set: ctDNA coculture with MM1s cells, whole genome sequencing: genomic insertion sites, transposons at insertion points and SNVs (multiple myeloma). The data set is classed as cell-based, human. The method, then:
The integration of ctDNAs into the host cell genome was evaluated. ctDNA was extracted from patient plasma, cultured for 24 hours with cells of a matching cancer cell type or non-matching cancer cell type, and whole genome sequencing was performed. The cell lines used were MM1s (multiple myeloma, MM) and MIA (pancreatic cancer, PC).
Single nucleotide variants (SNVs) unique to the ctDNA that were found in the host cell genome under matching coculture conditions were identified.
The sequence data was used to reconstruct genomic contigs for each experimental condition by de novo assembly. […] Coculture contigs carrying a ctDNA insertion were identified using NucDiff analysis. BLAST alignment analysis further validated the gain of ctDNA fragments in coculture conditions and identified the transition points of ctDNA insertion (FIGS. 3A-3C). […] The remaining 20% inserted into a chromosomal location distinct from their site of origin.
Experiments were designed to identify the presence of transposons in ctDNA fragments. To map ctDNA genomic junctions more precisely, a PACBIO probe was ligated to multiple myeloma and pancreatic cancer ctDNA samples to label their 5′ and 3′ ends. Whole-genome sequencing of DNA from cells with ctDNA genomic integration was done using the Illumina platform. De novo assembly was performed on the sequencing output. ctDNA contigs containing PACBIO adaptor were then matched to those contigs containing inserted ctDNA sequences identified in the coculture experiments. Transposable element on ctDNA sequences at the insertion points (<100 nucleotides from transition point between cell and ctDNA) were detected and classified using RepeatMaster.
A search was conducted for transposons that preferentially target cells of matching tumor types. The lists of transposons identified at the ctDNA insertion point in matching and mismatched coculture conditions were compared (e.g., MM ctDNA with MM cells or PC cells). Transposons were selected that were uniquely or preferentially inserted in the matching conditions.
In multiple myeloma, AluSp, MER11, MER11C, AluJb, and L2a, among other subfamilies of retrotransposons were identified at the MM ctDNA insertion sites (FIG. 5B and TABLE 7).
Whole-genome sequencing and Whole exon sequencing: ctDNA was extracted from 10 MM and 10 PC patients. DNA from CD138 (+) cells and from cell lines used in in vitro experiments (MM1s and MIA) was extracted using Blood & Cell Culture DNA Mini Kit (Quiagen, MD). DNA from […] paraffin embedded pancreatic tumors was obtained using QIAamp DNA FFPE Tissue Kit Print (Qiagen, MD).
After extraction, ctDNA was ligated to the PACBIO adaptor ([…]) using the ABM DNA Library Prep Kit for Illumina Sequencing (Applied Biological Materials Inc. Canada). PACBio-labeled ctDNA and regular ctDNA were subjected to standard methods for library preparation and sequencing using Illumina and Agilent protocols, respectively. Applied Biological Materials Inc. prepared the libraries and performed whole-exon and -genome sequencing. The average target coverage was 50×.
Identification of transposable elements and its nucleotide variants: To determine the locations of transposable-like regions in contigs, sequences were analyzed and transposable elements (TEs) were identified and classified using RepeatMasker version 4.1.0 and the Dfam database (release 3.1) of repetitive DNA families was used as a reference for identifying repeats in ctDNA contig sequences that were part of qualifying structural events. For each repeat sequence identified by RepeatMasker, the overall frequency of the specific repeat (e.g., for AluSp or L1) and their parent class (e.g., SINE) was computed.
Once the TE elements were identified, hit repeats/TE sequences, unique contigs for all samples, and insertion sequence were aligned with MAFFT software version. […]

Turning to `Cc1nnc(C(=O)NC(C)(C)c2nc(C(=O)NCc3ccc(F)cc3)c(O)c(=O)n2C)o1` [raltegravir], the ctDNA chromatid integration result in data set [1] is “significantly reduced”.

`O=c1[nH]cnc2c1ncn2[C@H]1CC[C@@H](CO)O1` [didanosine]: the ctDNA chromatid integration result in data set [1] was “significantly reduced”.

As for `Cc1cn([C@H]2C[C@H](N=[N+]=[N-])[C@@H](CO)O2)c(=O)[nH]c1=O` [zidovudine], the ctDNA chromatid integration entry in data set [1] is reported as “significantly reduced”.

B1: THE1C (nucleic acid, listed as Homo sapiens)
DNA: TGATATGGTTTGGCTGTGTCCCCACCTAAATCTCATCTTGAATTGTAGTTCCCATAATCCCCATGTGTCATGGGAGGGACCCAGTGGGAGGTAATTTAATCCTGGGGGCAGTTACCCTCCTGCTATGTGTGTGTGTGTGTGTGTGTTCTCACGAGATCTGATGGTTTTATAAGGGGCTTTTCCCCCTTCGCTCGGCACTTCTCCTTCCTGCCGCCATGTGAAGAAGGACGTGTTTGCTTCCCCTTCCGCCATGATTGTAAGTTTCCTGAGGCCTCCCCAGCCATGCNGAACTGTGAGTCAATTAAACCTCTTTCCTTTATAAATTACCCAGTCTCGGGTGTGTCTTTATTAGCAGCGTGAGAACGGACTAATACA
modifications: misc_difference 287 a, c, t, g, unknown or other
Take B1: in data set [2] (TABLE 7, multiple myeloma co-culture, BLAST alignment orientation), the blast orientation result is “Plus/Minus”. Besides, the blast chr result in data set [2] (TABLE 7, multiple myeloma co-culture, chromosome with the longest result for BLAST analysis of the full contig) is recorded as “chr14”. For the same molecule, the Transposon orientation result in data set [2] (TABLE 7, multiple myeloma co-culture, compared with the human reference genome) is given as “direct”. The Distance from insertion in data set [2] (TABLE 7, multiple myeloma co-culture, distance between insertion and the transposon (0 if they overlap)) amounted to 0. Moreover, the “Location relative to insertion” value in data set [2] (TABLE 7, multiple myeloma co-culture, location of the transposon relative to the insertion on the contig) is listed as “intersect”.

B2: 3 (nucleic acid, listed as Homo sapiens)
chain: TCTCACCACCTCTACTACTGCCTATCTGCATCTGGGTGCACGTCCTCTGCTATTCCTTCTGTTTCTACAGAAGCTGTCCATATTTCTAAGGCTAATCCCTTGCATTTTGGTACCAGACTTCCCTGACCTACACAAAGATGATCACCCCCCAAAATTGCCTTTCTTTCCTGCATCAAGTTTTTTCTTCTCTACTGTATTATTCCTATTGCACATTAGCCCAAAAAATGCCGTTGTTTTTCCATCGGTAAAAAAAAAAAATAGAGAGAAAAAGAAAAATAATCCATTGCCGCCAATCTATCTTCTAGTCATTTTTCCATTTCTCTGTTCTCCATTCTGCATAAACCATTTTTACTTGAATTGTTTATACTTGCTGTTTACAACAAACCTCCTCTTTCTCTCCACCCCAATCAGATTTTGGTCCACATTCCTCATGCAGTGGTCAGTCCTTGGTCCTCAACCTAGTCTAGCCTGCTTGCTGGTGGGTGTGCTCTCGGGGCATTTGCTTGTGTTTGCACGACAGCTCAGTCCCTCACTTCTCTCAAGTCTTTGCTAATAACACTCTTGCATCCAAGTCTTCCCTGACCTGCTACTTAAAAACAACTCACCCCCACCCCTAGAAATCCCTATCCTCTTCCCTACGCTTTATTTTTCTCCATAATACTTATCACCATGTAGCTGAACATGTATTTTACTCACTTTTTTTTATATTGTCCATCTTCCCTCAGTGAATTGAAAGCTCCATGAGGGCAGGAGGTTTTGTTTATTGTGTTTACTGCTTTATCCCTAGCACCCAGCACAGCATATGTGATATAGTAGACACTCAATACAAATCTGATGTGTGTGTGTCT
With B2, in data set [2] (gene at identified genomic insertion site, multiple myeloma), the Gene entry is recorded as “AKAP6”. In data set [2] (identified genomic insertion site, chromosome, multiple myeloma), the Location result was “Chr4”. For the same molecule, the “No. SNP” value in data set [2] (number of single nucleotide variants (SNVs or SNPs) identified, multiple myeloma) was “Many”.
